The target in the test is Flag-NEO1 (UniProt Q92859). Nature of the test: immunostaining of cells or tissue; plate-based cell binding in 384-well plates: transfected COS-7 cells, blocked with PBS 1% BSA, CBLN4-Fc for 1 h on ice, fixed, detected with Alexa Fluor-488 anti-human IgG; candidate screen, titration series and DCC domain mapping.
Sequence of Flag-NEO1 (Q92859 34-1461): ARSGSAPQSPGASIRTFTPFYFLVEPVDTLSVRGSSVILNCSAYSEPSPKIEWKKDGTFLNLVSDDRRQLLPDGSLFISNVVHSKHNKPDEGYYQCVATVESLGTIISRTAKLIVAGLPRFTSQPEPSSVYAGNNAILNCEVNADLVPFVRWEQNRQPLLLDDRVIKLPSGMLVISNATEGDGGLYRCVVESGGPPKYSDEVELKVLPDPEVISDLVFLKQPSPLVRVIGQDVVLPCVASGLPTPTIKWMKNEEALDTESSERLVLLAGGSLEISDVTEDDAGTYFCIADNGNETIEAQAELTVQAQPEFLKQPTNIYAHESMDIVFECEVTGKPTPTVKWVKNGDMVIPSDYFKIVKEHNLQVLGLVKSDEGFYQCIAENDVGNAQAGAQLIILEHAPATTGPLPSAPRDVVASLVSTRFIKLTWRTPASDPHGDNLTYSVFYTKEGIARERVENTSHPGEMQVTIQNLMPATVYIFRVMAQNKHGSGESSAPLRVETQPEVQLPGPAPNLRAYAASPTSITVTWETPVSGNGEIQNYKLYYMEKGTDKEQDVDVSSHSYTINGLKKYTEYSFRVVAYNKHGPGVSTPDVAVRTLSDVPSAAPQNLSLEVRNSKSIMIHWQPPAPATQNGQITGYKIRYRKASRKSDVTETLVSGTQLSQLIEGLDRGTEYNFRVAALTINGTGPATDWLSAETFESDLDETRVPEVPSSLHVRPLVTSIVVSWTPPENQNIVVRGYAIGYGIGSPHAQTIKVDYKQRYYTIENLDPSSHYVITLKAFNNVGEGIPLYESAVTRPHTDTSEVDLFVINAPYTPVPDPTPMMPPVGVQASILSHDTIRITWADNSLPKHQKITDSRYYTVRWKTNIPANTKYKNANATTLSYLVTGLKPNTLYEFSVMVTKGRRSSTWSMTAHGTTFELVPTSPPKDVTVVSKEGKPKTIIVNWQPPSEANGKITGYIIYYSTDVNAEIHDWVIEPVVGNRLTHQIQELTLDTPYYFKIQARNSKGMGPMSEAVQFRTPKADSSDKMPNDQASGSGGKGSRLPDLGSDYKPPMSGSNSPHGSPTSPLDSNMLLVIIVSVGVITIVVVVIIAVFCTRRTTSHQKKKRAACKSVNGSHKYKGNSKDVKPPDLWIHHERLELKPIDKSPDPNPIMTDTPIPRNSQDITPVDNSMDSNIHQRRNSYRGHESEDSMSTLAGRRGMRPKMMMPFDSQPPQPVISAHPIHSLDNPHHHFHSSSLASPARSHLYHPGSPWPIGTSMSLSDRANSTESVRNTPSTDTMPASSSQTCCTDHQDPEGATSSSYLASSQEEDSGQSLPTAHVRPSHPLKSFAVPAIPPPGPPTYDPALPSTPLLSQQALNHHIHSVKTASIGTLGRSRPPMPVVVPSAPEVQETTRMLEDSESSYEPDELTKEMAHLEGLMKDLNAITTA

As for “human CBLN4 (M1-L201) with a C-terminal Fc tag (from UniProt Q9NTU7 28-201) (Fc fusion)”, the lowest CBLN4-Fc concentration at which binding was detected stood at 280 nM.

The values are drawn from paper PMC3882260.
